Key:
[1] = system: Kv2.1 R293S/R294S/R300S (R-1S/R0S/R2S); experiment: Omega currents (Iω) of Kv2.1 R-1S/R0S/R2S in Xenopus oocytes, two electrode voltage-clamp; assay type: cell-based, human
Source text: The coding cDNAs of KV2.1 “wild-type” (hereinafter WT) base construct (hKv2.1-m7-c3 is human Kv2.1, residues 1-858, mutated to confer AgTx2 sensitivity and to remove extracellular cysteine residues) was synthesized (Entelchon GmbH) and cloned into the high expression vector pBSTA.
Mutations Kv2.1 R294N (hereinafter R0N), Kv2.1 R300S (hereinafter R2S), Kv2.1 R294C/R300S (hereinafter R0C/R2S), Kv2.1 R293S/R294S (hereinafter R-1S/R0S), Kv2.1 R293S/R294C (hereinafter R-1S/R0C), Kv2.1 R293S/R294S/R300S (hereinafter R-1S/R0S/R2S), Kv2.1 R293S/R294C/R300S (hereinafter R-1S/R0C/R2S) were introduced using the QuikChange® Lightning Site-Directed Mutagenesis Kit (Stratagene) with mutagenic primers according to the manufacturer's instructions. All constructs were checked by restriction site mapping and sequencing.
Transcripted cRNA was produced using the mMessage mMachine kit (Ambion Inc.). Two to four days past injection of cRNA into stage V-VI Xenopus oocytes (NASCO) potassium currents through the alpha pore (Iα) were recorded with the two electrode voltage-clamp technique making use of a TURBO TEC-05× amplifier (npi electronic GmbH). Currents were filtered at 10 kHz and sampled at 20 kHz. The bath solution contained (in mM): NaCl 96, KCl 2, CaCl2 1, MgCl2 1 and HEPES 5 (pH 7.5). Voltage-recording and current-injecting microelectrodes were filled with 3 M KCl and pulled to have resistances between 0.2 and 1 MΩ (see Stork et al., 2007). The pClamp software package v.10.1 (Molecular Devices, Inc.) was used for data acquisition and analysis.
Recording of alpha currents (Iα): Pulses of 100 ms were applied from ˜60 to +60 mV in 10 mV steps at 1 Hz from a holding potential of ˜80 mV to the Kv2.1 channel constructs to measure alpha currents (Iα). Passive leak currents were subtracted online using a P/4 procedure: pClamp software generates a series of scaled-down replica sweeps of the main stimulus waveform. […] The cell's response to the subsweeps is used to calculate the degree of passive cellular current leak. This is then subtracted from acquired data on the associated input signal. Recording of omega currents (Iω): Pulses of 10 ms were applied from a holding potential of ˜80 to ˜300 mV in 20 mV steps at 0.3 Hz to the Kv2.1 channel constructs. Iω were recorded without leak subtraction.
AgTx2 (Sigma Aldrich) was reconstituted according to manufacturer's instructions with 10 mM Tris, pH 7.5, containing 100 mM sodium chloride, 0.1% bovine serum albumin, and 1 mM EDTA. LaCl3 was from Sigma Aldrich; MTSEA, MTSES and MTSET were from Biotium.
La^3+, AgTx2, MTSEA, MTSES and MTSET and were applied to Xenopus oocytes by means of a fast perfusion technique (ScreeningTool as described by Baburin et al., 2006). Origin software v.7.0 (OriginLab Corp.) was employed for data analysis. Inhibition of inward currents was defined as 1−Iω,drug/Iω,control, where Iω,drug is the current response in the presence of a given concentration of lanthanum (La^3+) and Iω, control is the control current through the omega pore. The concentration-inhibition curve was fitted using the Hill equation: Iω,drug/Iω,control=A+[…] where IC50 is the concentration at which Iω inhibition is half-maximal, C is the applied La^3+ concentration, A is the fraction of Iω current that blocked and nH is the Hill coefficient. Data are given as mean±SE (n=number of experiments).

Kv2.1 = biological target: T1, Kv2.1 (Homo sapiens, UniProt Q14721); conditions: cited from earlier work; for IC50: Table 5, read-out: IC50, channel Kv2.1
T1 sequence (Q14721 1-858): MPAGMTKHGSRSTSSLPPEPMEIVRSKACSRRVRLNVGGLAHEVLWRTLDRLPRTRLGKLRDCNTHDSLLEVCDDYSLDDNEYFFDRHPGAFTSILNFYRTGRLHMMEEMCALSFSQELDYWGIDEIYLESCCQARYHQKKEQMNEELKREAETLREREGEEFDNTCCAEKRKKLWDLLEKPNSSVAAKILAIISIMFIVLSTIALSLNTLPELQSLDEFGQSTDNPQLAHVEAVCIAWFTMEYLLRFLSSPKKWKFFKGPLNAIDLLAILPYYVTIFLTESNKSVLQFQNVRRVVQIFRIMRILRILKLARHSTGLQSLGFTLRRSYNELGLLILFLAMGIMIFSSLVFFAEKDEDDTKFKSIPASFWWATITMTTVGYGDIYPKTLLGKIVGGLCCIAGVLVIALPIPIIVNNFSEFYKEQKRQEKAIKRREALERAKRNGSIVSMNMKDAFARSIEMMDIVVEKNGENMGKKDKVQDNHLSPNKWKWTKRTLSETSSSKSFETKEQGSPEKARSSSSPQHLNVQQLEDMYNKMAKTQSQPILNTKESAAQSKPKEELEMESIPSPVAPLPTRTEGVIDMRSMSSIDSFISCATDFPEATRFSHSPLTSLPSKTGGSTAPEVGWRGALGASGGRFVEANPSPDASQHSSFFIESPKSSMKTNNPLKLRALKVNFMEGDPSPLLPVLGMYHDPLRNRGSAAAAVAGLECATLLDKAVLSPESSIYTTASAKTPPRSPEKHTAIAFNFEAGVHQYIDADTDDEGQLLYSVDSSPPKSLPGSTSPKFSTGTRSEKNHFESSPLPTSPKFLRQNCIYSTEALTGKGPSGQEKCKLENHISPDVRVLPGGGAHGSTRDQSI

For “Agitotoxin-2 (GVPINVSCTGSPQCIKPCKDAGMRFGKCMNRKCHCTPK) [AgTx2]”, the “Inhibition of inward currents at negative potentials (Iω)” value ([1]; 10 nM AgTx2, after 5 minutes) is listed as “not inhibited”, the IC50 (Kv2.1) is listed as greater than 2000 nM and the “Sensitivity of Kv2.1 to the scorpion toxin” value (Kv2.1; text b541) is listed as “insensitive”.

In the case of “Guangxitoxin (EGECGGFWWKCGSGKPACCPKYVCSPKWGLCNFPMP) [GxTx-1E]”, the “Effect on omega current (Iω)” value ([1]; 100 nM GxTx-1E, 5 minutes application) is given as “enhanced” and the IC50 (Kv2.1) is given as 2 nM.

— patent US10753947B2, “Methods for screening voltage-gated proteins” (D.E. Shaw Research, LLC, priority 2012, dated 2020)
